{"source": "patent US20230038720A1", "binders": {"B1": {"name": "Peptide 8 (peptide)", "chain": "cyclo(GVCSCRRRFCLCRR)", "modifications": "disulfide (positions not given here); not fully specified (bridges)"}, "B2": {"name": "Peptide 7 (peptide)", "chain": "cyclo(GVCICRRRFCSCRR)", "modifications": "disulfide (positions not given here); not fully specified (bridges)"}, "B3": {"name": "Peptide 10 (peptide)", "chain": "cyclo(GVCACRRRFCACRR)", "modifications": "disulfide (positions not given here); not fully specified (bridges)"}, "B4": {"name": "Peptide 6 (peptide)", "chain": "cyclo(GVCSCRRRFCICRR)", "modifications": "disulfide (positions not given here); not fully specified (bridges)"}, "B5": {"name": "Peptide 4 (peptide)", "chain": "cyclo(GVCICRRGVCICRR)", "modifications": "disulfide (positions not given here); not fully specified (bridges)"}, "B6": {"name": "Peptide 5 (peptide)", "chain": "cyclo(GVCACARRFCACRR)", "modifications": "disulfide (positions not given here); not fully specified (bridges)"}, "B7": {"name": "Peptide 1 (peptide)", "chain": "cyclo(GVCICRRRVCICGR)", "modifications": "disulfide (positions not given here); not fully specified (bridges)"}, "B8": {"name": "Peptide 3 (peptide)", "chain": "cyclo(GVCLCRRGVCLCRR)", "modifications": "disulfide (positions not given here); not fully specified (bridges)"}, "B9": {"name": "Peptide 2 (peptide)", "chain": "cyclo(GVCICRRRFCLCRR)", "modifications": "disulfide (positions not given here); not fully specified (bridges)"}, "B10": {"name": "Peptide 9 (peptide)", "chain": "cyclo(GACICRRRFCLCRR)", "modifications": "disulfide (positions not given here); not fully specified (bridges)"}}}
{"biological_target": "TACE", "assay": "cell-based or functional assay", "units": {"TACE IC50": "µg/mL"}}
{"binder": "B1", "TACE IC50": 2.61}
{"binder": "B2", "TACE IC50": 1.87}
{"binder": "B3", "TACE IC50": 2.74}
{"binder": "B4", "TACE IC50": 3.19}
{"binder": "B5", "TACE IC50": 0.546}
{"binder": "B6", "TACE IC50": 1.83}
{"binder": "B7", "TACE IC50": 0.858}
{"binder": "B8", "TACE IC50": 1.15}
{"binder": "B9", "TACE IC50": 2.2}
{"binder": "B10", "TACE IC50": 0.515}
